Experimental data reported in IntAct's records for PubMed 11356864.

B1: Syndecan-2 (Rattus norvegicus (Rat)), P34900 (parent)
chain: MQRAWILLTLGLMACVSAETRAELTSDKDMYLDSSSIEEASGLYPIDDDDYSSASGSGAYEDKGSPDLTTSQLIPRISLTSAAPEVETMTLKTQSITPTQTESPEETDKKEFEISEAEEKQDPAVKSTDVYTEKHSDNLFKRTEVLAAVIAGGVIGFLFAIFLILLLVYRMRKKDEGSYDLGERKPSSAAYQKAPTKEFYA

Variants of: B1
Conditions: with nf1_human NF1, P21359
Chain of nf1_human NF1, P21359 (P21359 whole entry): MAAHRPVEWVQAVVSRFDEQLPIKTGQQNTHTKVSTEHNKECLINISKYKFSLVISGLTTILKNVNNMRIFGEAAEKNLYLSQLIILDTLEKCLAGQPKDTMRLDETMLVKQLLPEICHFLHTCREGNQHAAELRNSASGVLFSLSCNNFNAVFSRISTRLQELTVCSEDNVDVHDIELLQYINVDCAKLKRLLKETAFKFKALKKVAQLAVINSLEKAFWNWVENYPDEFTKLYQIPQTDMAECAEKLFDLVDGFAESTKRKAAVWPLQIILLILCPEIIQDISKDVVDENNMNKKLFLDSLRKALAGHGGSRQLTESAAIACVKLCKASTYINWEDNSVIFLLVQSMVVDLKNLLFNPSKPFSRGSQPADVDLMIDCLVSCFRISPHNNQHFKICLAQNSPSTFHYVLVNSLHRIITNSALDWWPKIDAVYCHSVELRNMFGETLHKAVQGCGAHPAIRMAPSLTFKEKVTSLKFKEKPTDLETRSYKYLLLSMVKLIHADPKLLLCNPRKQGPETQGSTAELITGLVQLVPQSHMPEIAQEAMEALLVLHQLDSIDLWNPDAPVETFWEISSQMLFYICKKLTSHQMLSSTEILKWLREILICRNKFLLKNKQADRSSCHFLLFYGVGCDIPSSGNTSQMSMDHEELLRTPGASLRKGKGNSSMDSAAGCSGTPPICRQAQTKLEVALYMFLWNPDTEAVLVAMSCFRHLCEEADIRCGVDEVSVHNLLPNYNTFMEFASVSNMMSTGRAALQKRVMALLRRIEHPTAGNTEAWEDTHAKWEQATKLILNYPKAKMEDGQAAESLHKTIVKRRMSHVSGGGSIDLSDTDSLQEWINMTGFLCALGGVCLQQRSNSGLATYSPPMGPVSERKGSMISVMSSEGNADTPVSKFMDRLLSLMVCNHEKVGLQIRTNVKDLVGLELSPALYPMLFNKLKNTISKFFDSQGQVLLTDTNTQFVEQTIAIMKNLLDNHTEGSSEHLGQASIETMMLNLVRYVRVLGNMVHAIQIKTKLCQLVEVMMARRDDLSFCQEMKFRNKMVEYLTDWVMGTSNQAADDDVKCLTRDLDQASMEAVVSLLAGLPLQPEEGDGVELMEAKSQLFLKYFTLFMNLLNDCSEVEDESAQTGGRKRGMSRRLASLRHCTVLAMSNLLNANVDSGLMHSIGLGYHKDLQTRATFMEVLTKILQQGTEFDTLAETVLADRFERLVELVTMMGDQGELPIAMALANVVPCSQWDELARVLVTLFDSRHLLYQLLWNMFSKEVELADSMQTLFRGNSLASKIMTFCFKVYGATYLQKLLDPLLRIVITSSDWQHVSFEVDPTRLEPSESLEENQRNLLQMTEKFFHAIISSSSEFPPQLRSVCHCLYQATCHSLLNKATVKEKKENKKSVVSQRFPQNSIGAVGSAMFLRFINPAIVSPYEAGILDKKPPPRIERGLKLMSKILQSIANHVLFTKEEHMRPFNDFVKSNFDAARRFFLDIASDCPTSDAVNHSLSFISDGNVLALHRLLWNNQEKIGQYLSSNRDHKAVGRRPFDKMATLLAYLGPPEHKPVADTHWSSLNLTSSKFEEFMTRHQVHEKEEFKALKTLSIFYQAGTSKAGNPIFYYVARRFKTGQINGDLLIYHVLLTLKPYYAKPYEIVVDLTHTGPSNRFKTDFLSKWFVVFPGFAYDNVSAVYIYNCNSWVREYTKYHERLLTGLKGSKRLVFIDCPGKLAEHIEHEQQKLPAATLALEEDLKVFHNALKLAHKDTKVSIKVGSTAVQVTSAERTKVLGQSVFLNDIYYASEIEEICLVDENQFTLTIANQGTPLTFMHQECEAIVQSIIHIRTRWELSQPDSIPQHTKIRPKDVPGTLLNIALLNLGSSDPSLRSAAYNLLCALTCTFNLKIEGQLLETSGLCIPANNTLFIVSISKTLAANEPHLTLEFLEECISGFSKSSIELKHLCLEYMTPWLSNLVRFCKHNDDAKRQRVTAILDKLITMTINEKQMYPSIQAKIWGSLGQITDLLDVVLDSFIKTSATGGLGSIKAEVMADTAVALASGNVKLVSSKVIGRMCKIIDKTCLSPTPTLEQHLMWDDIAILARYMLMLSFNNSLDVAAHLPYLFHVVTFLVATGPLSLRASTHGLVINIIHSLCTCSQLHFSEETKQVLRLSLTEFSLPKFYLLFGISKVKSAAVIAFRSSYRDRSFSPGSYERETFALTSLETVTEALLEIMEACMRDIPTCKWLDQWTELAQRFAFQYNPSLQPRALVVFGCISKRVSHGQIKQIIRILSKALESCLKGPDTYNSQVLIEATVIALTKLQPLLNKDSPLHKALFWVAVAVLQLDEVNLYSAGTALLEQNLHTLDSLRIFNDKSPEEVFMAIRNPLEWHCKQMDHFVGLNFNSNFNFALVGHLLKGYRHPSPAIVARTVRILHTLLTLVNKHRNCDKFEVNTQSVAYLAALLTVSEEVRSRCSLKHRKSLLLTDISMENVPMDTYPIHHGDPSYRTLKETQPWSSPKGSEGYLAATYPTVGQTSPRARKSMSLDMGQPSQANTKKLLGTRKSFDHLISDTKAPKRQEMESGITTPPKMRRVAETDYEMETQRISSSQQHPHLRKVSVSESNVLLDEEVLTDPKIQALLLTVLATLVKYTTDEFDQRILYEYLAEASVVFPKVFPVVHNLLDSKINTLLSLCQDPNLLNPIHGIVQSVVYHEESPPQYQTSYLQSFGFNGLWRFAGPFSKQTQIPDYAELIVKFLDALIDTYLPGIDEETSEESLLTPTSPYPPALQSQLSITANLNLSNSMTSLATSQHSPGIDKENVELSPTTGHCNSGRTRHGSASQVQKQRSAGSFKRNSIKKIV

effect of a mutation on the interaction | Variant
decreasing interaction | K174A;D175A
decreasing interaction | E176A;G177A
decreasing interaction | R172A;K173A
increasing interaction | S178A;Y179A

Variants of: B1
Conditions: with nf1_human NF1, P21359
Remark: another data set of the same source

effect of a mutation on the interaction | Variant
decreasing interaction | S178A;Y179A
